Measurements as given in patent US20060121462A1, “Receptor and screening methods” (priority 2003, published 2006).

Columns and labels:
C5L2 [1] = target: T1, C5L2 (Homo sapiens, UniProt Q9P296); test: Competition binding with 125I-C3a, C5L2-transfected RBL cells; conditions: for IC50 / pD2 ± SE: C5L2 (^125I-C3a) expressed in RBL cells, 50 pM radioligand
T1 construct: expressed in transfected cells
Protocol: (§1) FIG. 1 illustrates C3a des-Arg^77 and C4a des-Arg^77 bind to RBL cells expressing C5L2. RBL cells transfected with C5L2 were incubated with the stated concentrations of complement fragments for 10 min prior to the addition of 50 pM ^125I-C3a (A) or 50 pM ^125I-C5a (B). Results are the means of n (n shown in Table 1) separate experiments performed in duplicate±S.E.;
(§2) C5L2, C3aR and CD88-transfected RBL cells were produced as described (17). G16 was cloned from human monocytes mRNA and authenticated by sequencing. Human G16 and either C5L2 or CD88 were ligated into the bicistronic expression vector pIRES (Qiagen). Stable transfection of RBL-2H3 cells with pIRES constructs was achieved by electroporation (18). Cells underwent three rounds of fluorescence-activated cell sorting using anti-CD88 antibody (clone S5/1; Serotec) or anti-hemagglutinin peptide antibody (Roćhe Molecular Biochemicals, clone 12CA5), selecting the top 5% of receptor-positive cells in each round.
(§3) Competition binding assays were performed using 50 pM ^125I-C5a or ^125I-C3a (NEN) on adherent C5aR-transfected or C5L2-transfected RBL cells in 96-well microtiter plates (55 000/well) at 4° C. as described previously (22). Competition curves were generated by pre-incubating adherent cells with increasing concentrations of unlabelled complement fragments. The IC50, standard error values and linear regression analyses were obtained by using GraphPad Prism 2.0.

C5L2 [2] = target: T1, C5L2; test: Degranulation (β-hexosaminidase) and enhancement of IgE-receptor-mediated degranulation, C5L2-transfected RBL cells; format: cell-based
C5L2 [3] = target: T1, C5L2; test: Triglyceride synthesis (3H oleate incorporation) in HEK293 cells stably transfected with C5L2; format: cell-based
Protocol: FIG. 15: Functional Response of HEK293 Cells Stably Transfected with C5L2 to ASP and Insulin: Cells were tested for response to ASP and insulin stimulation of triglyceride synthesis with 100 μM ^3H oleate for 4 hours. Results are calculated as nmol ^3H oleate incorporated into triglyceride/mg cell protein where 0 ASP is set as 100%. […] As in many biologic assays, the concentration required for activity at 37° C. under dynamic conditions is greater than the binding affinity (which is assessed at 4° C. under static conditions). For example, insulin Kd is in the pM range, but nM concentrations are required for activity. ASP Kd is high nM range, but biologic activity is in low μM range.

C3aR [4] = target: T2, C3aR (Homo sapiens, UniProt Q16581); test: Radiolabelled ligand competition receptor binding, C3aR-transfected RBL cells
T2 construct: expressed in transfected cells
T2 sequence (Q16581 1-482): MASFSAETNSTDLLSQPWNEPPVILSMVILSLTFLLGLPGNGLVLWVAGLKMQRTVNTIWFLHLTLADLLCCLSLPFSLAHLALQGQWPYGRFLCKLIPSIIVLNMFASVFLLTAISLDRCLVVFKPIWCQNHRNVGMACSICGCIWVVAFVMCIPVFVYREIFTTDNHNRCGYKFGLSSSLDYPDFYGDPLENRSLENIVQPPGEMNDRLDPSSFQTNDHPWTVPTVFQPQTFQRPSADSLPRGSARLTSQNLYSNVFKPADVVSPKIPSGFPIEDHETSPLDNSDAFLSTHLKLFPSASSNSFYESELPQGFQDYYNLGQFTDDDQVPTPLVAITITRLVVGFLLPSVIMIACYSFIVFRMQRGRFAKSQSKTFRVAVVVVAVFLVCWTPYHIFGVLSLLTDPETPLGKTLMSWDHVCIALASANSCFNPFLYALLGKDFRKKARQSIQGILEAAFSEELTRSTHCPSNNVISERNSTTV
Excerpt: as §2, §3

CD88 [5] = target: T3, CD88 (Homo sapiens, UniProt P21730); test: Degranulation of CD88-transfected RBL cells; format: cell-based
T3 construct: expressed in transfected cells
T3 sequence (P21730 1-350): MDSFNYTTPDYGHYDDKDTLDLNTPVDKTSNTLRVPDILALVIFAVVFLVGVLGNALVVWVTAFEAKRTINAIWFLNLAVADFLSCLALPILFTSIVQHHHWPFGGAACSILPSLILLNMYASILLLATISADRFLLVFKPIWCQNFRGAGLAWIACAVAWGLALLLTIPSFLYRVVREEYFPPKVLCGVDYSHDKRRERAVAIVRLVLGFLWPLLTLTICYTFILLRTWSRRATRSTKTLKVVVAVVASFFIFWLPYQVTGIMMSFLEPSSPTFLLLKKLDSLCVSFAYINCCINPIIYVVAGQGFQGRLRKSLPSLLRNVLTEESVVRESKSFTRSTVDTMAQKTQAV

C5L2 [6] = target: T1, C5L2; test: Competition binding with 125I-C5a, C5L2-transfected RBL cells
Protocol: as §1, §2, §3

[7] = target: T4, human formyl peptide-like receptor-1 (Homo sapiens, UniProt P25090); test: Enhancement of degranulation, RBL cells transfected with an irrelevant receptor; format: cell-based; conditions: RBL cells transfected with FPRL-1, FIG. 3B
T4 construct: expressed in transfected cells; host or cells: RBL cells
T4 sequence (P25090 1-351): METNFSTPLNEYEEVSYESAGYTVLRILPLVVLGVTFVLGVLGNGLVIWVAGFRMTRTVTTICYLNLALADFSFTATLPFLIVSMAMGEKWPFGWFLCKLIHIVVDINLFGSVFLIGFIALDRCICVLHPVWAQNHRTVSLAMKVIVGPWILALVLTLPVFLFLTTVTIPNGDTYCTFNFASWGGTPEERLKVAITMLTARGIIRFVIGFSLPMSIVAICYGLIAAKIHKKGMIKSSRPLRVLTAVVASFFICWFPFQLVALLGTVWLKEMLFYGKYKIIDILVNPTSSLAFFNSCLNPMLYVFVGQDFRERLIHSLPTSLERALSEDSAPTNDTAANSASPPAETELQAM
Protocol: FIG. 3 illustrates C3a des-Arg^77 enhances the degranulation response to cross-linkage of the high affinity IgE receptor in cells transfected with C5L2. RBL cells transfected with A), C5L2 or B), an irrelevant receptor (human formyl peptide-like receptor-1) were incubated overnight with […] IgE^DNP and then treated with the stated concentrations of C5a des-Arg^74, C4a des-Arg^77 or C3a des-Arg^77 or ASP for 15 minutes prior to the addition of the cross-linking agent, HSA-DNP at 100 ng/ml. Degranulation was assessed as the secretion of β-hexosaminidase. Results are shown as a percentage of the release stimulated by 100 ng/ml HSA-DNP in the absence of anaphylatoxin (control=1) and are means of 3-6 separate experiments performed in triplicate, ±S.E.
(§4) Cellular activation was measured as the release of -hexosaminidase from intracellular granules (20). In the enhancement of degranulation assay, cells were treated with 1 μg/ml IgE^DNP (21) overnight, then with chemoattractants or peptides for 10 min prior to stimulation with 100 ng/ml DNP-HSA (Sigma) for 15 minutes. EC50 and standard error values were obtained by iterative curve fitting using GraphPad Prism 2.0.

CD88 [8] = target: T3, CD88; test: Radiolabelled ligand competition receptor binding, CD88-transfected RBL cells
Excerpt: as §2, §3

C3aR [9] = target: T2, C3aR; test: Degranulation of C3aR-transfected RBL cells; format: cell-based; conditions: RBL cells transfected with C3aR; data not shown
Protocol: as §4

C5L2 [10] = target: T1, C5L2; test: Fluorescent ligand binding/uptake (FACS), HEK 293 cells transiently transfected with C5L2
Protocol: (§5) HEK 293 cells were transfected with C3aR (A) or C5L2 (B) and three days later cells were incubated for 30 minutes with the indicated concentrations of FLUOS-labelled C3a or ASP, respectively. Binding/uptake was assessed by FACS, and the percentage of cells above a fluorescence intensity of 8 was determined. The fluorescence histograms at the highest and lowest ligand concentrations are shown in the insets;
(§6) HEK 293 cells were seeded into 6-well plates at 1×10^6 cells/well the day before transfection. C5L2 in vector pEE6hCMV.neo (Celltech) or C3aR in vector pcDNA1/AMP (Invitrogen) at 2 μg DNA/well were transfected with Lipofectamine2000 (5 μl/well) (Invitrogen) according to the manufacturer's protocol. Cells were assayed for binding/uptake three days post-transfection.
(§7) ASP or C3a was labelled with FLUOS (Roche Biochemicals) at a molar ratio of 1:10 (ligand:FLUOS) for two hours according to the manufacturer's recommendations. Labelled ligand was separated from free FLUOS on a Sephadex G25M column and stored in aliquots at −80° C.
(§8) Cells were incubated with the indicated concentrations of FLUOS-labelled ASP or C3a for 30 minutes at 37° C. in binding buffer (23) and washed three times with cold binding buffer. Cells were then detached with 0.25% trypsin/0.02% EDTA in PBS, fixed with 1% paraformaldehyde, washed with PBS, and assayed by fluorescence-activated cell scanning.

C3aR [11] = target: T2, C3aR; test: Fluorescent ligand binding/uptake (FACS), HEK 293 cells transiently transfected with C3aR; conditions: HEK 293 transiently transfected with C3aR; mean±SD, n=3
Protocol: as §5, §6, §7, §8

CD88+Gα16 = target: T5, CD88+Gα16 (Homo sapiens, UniProt P21730); test: Degranulation of CD88+Gα16 co-transfected RBL cells; format: cell-based; conditions: 10 ng/ml PT
T5 construct: expressed in transfected cells
T5 sequence (P21730 1-350): T3 sequence (P21730 1-350)

[12] = HEK-C5L2 stable transfectants, 100 μM ^3H oleate, 4 hours
[13] = C5L2 (^125I-C5a) expressed in RBL cells, 50 pM radioligand

T1 sequence (Q9P296 whole entry): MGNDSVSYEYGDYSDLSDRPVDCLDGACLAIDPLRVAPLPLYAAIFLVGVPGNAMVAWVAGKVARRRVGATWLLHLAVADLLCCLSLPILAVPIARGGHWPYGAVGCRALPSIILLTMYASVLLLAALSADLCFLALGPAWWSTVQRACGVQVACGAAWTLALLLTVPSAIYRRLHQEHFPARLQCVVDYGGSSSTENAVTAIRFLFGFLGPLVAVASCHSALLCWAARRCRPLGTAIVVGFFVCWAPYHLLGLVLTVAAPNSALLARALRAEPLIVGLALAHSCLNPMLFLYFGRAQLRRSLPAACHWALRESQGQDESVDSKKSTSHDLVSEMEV

Question: How did the “Kd” value (C5L2 [1]; binding affinity assessed at 4° C. under static conditions) turn out when “ASP: Plasma ASP (C3a des-Arg^77), human C3a des-Arg^77 purified as acylation-stimulating protein” was run?
Answer: high nM range

Question: And the “EC50 compared with recombinant C3a des-Arg^77” value (C5L2 [2]; enhancement of IgE-mediated degranulation, FIG. 3A)?
Answer: identical EC50

Question: And the “concentration for biologic activity” value (C5L2 [3]; 37° C. under dynamic conditions)?
Answer: low μM range

Question: What about the “stimulation of triglyceride synthesis” value (C5L2 [3]; [12]) of the same substance?
Answer: increasing triglyceride synthesis in a concentration dependent manner

Question: What about the “stimulation of triglyceride synthesis” value (C5L2 [3]; non-transfected HEK cells) of the same substance?
Answer: not responsive to ASP

Question: What does the source list for C3a des-Arg^77?
Answer: affinity for C3aR (C3aR [4]; Table I): no detectable affinity; stimulation of degranulation (CD88 [5]; RBL cells transfected with CD88, data not shown): neither C3a des-AXg^77 nor C4a des-Arg^77 can stimulate degranulation; IC50 (C5L2 [1]): 0.526 µM; pD2 ± SE (C5L2 [1]): 6.24 ± 0.10; competition with ^125I-C3a for C5L2 binding (C5L2 [1]; FIG. 1A): can compete strongly; IC50 (C5L2 [6]; [13]): 18 µM; pD2 ± SE (C5L2 [6]; [13]): 4.73 ± 0.16; competition with ^125I-C5a binding to C5L2 (C5L2 [6]; FIG. 1B): cannot compete effectively; enhancement of degranulation [7]: small enhancement of degranulation; competition with ^125I-C5a binding to CD88 (CD88 [8]): cannot compete effectively; direct stimulation of degranulation (C5L2 [2]; without IgE receptor cross-linking, data not shown): neither recombinant nor purified C3a des-Arg^77 (or any other ligand) is able to directly stimulate degranulation; stimulation of degranulation (C3aR [9]): neither C3a des-AXg^77 nor C4a des-Arg^77 can stimulate degranulation

Question: What does the source list for C3a: 77 amino acid complement fragment?
Answer: IC50 (C5L2 [1]): 0.167 µM; pD2 ± SE (C5L2 [1]): 6.78 ± 0.10; IC50 (C5L2 [6]; [13]): 23 µM; IC50 (CD88 [8]; CD88 expressed in RBL cells, competition binding, 4° C., read-out: IC50 (concentration of unlabelled ligand resulting in 50% of maximal radioligand binding)): 23 µM

Question: With “FLUOS-ASP: ASP labelled with FLUOS at a molar ratio of 1:10” as the substance, how does the Kd (C5L2 [10]; HEK 293 transiently transfected with C5L2, 30 minutes at 37° C., flow cytometry, read-out: half maximal fluorescence intensity (binding/uptake)) read?
Answer: ~0.003 µM

Question: And the “binding to mock-transfected cells” value (C5L2 [10]; mock-transfected HEK 293 cells, 10 nM)?
Answer: no binding

Question: What about the “binding (basal binding=100%)” value (C3aR [11]) of the same substance?
Answer: 103%±14%

Question: “^125I-ASP: ^125I-labelled ASP [reference compound]” was tested. Which “binding to C3aR-transfected cells” value (C3aR [4]; ^125I-labelled ligand, data not shown) did it give?
Answer: does not bind to C3aR-transfected cells

Question: What does the source list for insulin?
Answer: stimulation of triglyceride synthesis (C5L2 [3]; [12]): neither HEK nor HEK-C5L2 are responsive to insulin; stimulation of triglyceride synthesis (C5L2 [3]; non-transfected HEK cells): neither HEK nor HEK-C5L2 are responsive to insulin

Question: Which results are given for pertussis toxin [reference compound]?
Answer: effect on degranulation response to C5a (CD88 [5]; CD88 alone, 0-10 ng/ml PT for 4 h prior to 50 nM C5a): inhibited the degranulation response; effect on degranulation response to C5a (CD88+Gα16): a small inhibition of degranulation; effect on enhancement of degranulation by ASP/C3a des-Arg^77 (C5L2 [2]; C5L2 alone, 10 ng/ml PT for 4 h, FIG. 4C): can be inhibited by pre-treating cells with pertussis toxin
